Source: patent publication US20020045564A1, “Methods of modulating muscle contraction” (priority 1997, published 2002)
Values belong to the molecule of their own block, whether it stands above or below them.

Experiments:
cardiac LC20 = target: T1, cardiac LC20 (Homo sapiens, UniProt P10916); experiment: In vitro phosphorylation of cardiac LC20; assay type: biochemical
T1 construct: using isolated cardiac myofibrils and associated proteins; from tissue
T1 sequence (P10916 1-166): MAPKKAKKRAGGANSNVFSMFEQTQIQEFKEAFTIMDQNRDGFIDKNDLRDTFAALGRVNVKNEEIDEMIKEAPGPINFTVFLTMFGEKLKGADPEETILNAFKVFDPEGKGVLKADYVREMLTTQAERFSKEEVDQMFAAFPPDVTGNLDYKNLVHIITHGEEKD
Description: In vitro phosphorylation of intact smooth, skeletal, cardiac, platelet, and Dictyostelium myosin and isolated LC20, caldesmon, and caldesmon fragments, and cardiac and skeletal Tn were carried out at 25° C. in 10 mM Tris, pH 7.0, 50 mM sodium chloride, 1 mM [γ^32P]ATP (5×10^5 cpm per nmol) or at 37° C. in the same buffer except containing 150 mM sodium chloride. Aliquots of the reaction mixture were analyzed for protein phosphorylation using Whatman P81 paper and SDS-gel electrophoresis/autoradiography as previously described (Childs, T. J. et al. 1992. J. Biol. Chem. 267:22853-22859). In the case of cardiac and skeletal Tn, the three Tn subunits (TnI, TnT, and TnC) were separated by reversed phase HPLC. The individual subunits were analyzed for incorporation of ^32P (i.e., phosphorylation by PAK) by SDS-PAGE and autoradiography and direct counting.
Phosphorylated amino acids were identified by thin-layer electrophoresis after partial hydrolysis of the phosphorylated proteins in 6 N hydrochloric acid as previously described (Childs, T. J. et al. 1992. J. Biol. Chem. 267:22853-22859; Mak, A. S. et al. 1991. J. Biol. Chem. 266:19971-19975; Mak, A. S. et al. 1991. J. Biol. Chem. 266:6678-6681). […]

[1] = target: smooth muscle myosin ATPase (Gallus gallus, UniProt P02607+P10587); experiment: Actin-tropomyosin activated ATPase activity of smooth muscle subfragment 1 (S1); assay type: biochemical; conditions: FIG. 6
Description: Reactions consisted of 10 μM actin, 2 μM tropomyosin, 0.5 μM S1, and variable concentrations of unphosphorylated and phosphorylated caldesmon. The buffer contained 40 mM Tris-HCl pH 7.8, 50 mM KCl, 5 mM MgCl2, 1 mM DTT at 37° C. Reactions were performed in a 96 well microtitre plate, triggered by the addition of 4 mM ATP. The phosphate assay was performed according to the method of Chifflet, S. et al. 1988. (Anal. Biochem. 168:1-4). Briefly, reactions were terminated by the addition of an equal volume (100 μL) of reagent which contained 6% (w/v) SDS, 3% (w/v) ascorbic acid, 1M HCl, 0.5% (w/v) ammonium molybdate. The mixture was incubated for 5 minutes prior to the addition of a second reagent which contained 2% sodium citrate, 2% sodium m-arsenite, and 2% acetic acid. Blue colour developed quickly over 5 minutes. Microtitre plates were read at 650 nm on an E-max ELISA plate reader (Molecular Dynamics, Sunnyvale Calif.). Phosphate was determined by comparing experimental values to standard phosphate values obtained through dilution of phosphate-buffered saline (PBS).

actin-tropomyosin = experiment: Actin-tropomyosin binding assay (centrifugation); conditions: FIG. 5
Description: To quantitate the amount of smooth muscle caldesmon and smooth muscle tropomyosin bound to the skeletal actin thin filament (>95% amino acid homology to smooth muscle actin), centrifugation studies were carried out in binding buffer consisting of 20 mM Tris-HCl pH 7.2, 10 mM KCl, 5 mM MgCl2 and 1 mM DTT. The concentration of actin was 5 nmole/200 μl (˜25 μM) and the mole ratio of actin to tropomyosin was 7:2. Increasing quantities of unphosphorylated or phosphorylated caldesmon were added to the actin-tropomyosin mixture. Protein concentrations were determined by the Lowry method or by absorbance at 280 nm. Samples were spun for 30 min at approximately 95,000 rpm, resulting in the pelleting of over 95% of the actin. The obtained pellets were dissolved in 100 μl of 0.05% aqueous trifluroacetic acid (TFA) and injected on a Zorbax C8 SB300 reversed-phase column (4.6 mm×250 mm) on a Varian HPLC system (Star series). The various proteins were eluted using a 2% B/min linear A/B gradient with a 5 min initial isocratic hold, where solvent A is 0.05% aqueous TFA and solvent B is 0.05% TFA in acetonitrile. The flow rate was 1 ml/min. The peak areas were determined at 210 nm and converted to nanomoles using a standard curve obtained for each protein. […] The experiments were done in triplicate and the standard deviation calculated.

Chain of smooth muscle myosin ATPase (P10587 84-789 limits assumed): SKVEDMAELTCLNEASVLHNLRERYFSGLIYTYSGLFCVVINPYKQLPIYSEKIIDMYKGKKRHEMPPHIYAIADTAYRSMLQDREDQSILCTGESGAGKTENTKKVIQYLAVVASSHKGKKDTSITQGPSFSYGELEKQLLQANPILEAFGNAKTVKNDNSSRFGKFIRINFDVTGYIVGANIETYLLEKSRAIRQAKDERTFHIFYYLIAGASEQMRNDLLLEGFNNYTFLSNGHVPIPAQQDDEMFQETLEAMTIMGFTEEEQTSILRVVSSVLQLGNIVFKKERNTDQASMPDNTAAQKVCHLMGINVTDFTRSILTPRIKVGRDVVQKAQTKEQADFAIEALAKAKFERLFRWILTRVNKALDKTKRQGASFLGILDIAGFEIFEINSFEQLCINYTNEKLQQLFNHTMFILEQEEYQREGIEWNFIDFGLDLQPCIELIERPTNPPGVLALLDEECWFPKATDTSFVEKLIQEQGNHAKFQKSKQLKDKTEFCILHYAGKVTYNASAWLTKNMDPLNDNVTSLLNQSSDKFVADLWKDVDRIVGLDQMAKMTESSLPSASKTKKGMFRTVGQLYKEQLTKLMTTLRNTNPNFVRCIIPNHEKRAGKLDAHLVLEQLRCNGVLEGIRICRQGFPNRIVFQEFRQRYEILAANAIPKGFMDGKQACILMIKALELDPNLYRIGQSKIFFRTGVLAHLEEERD
Chain of smooth muscle myosin ATPase (P02607 2-151 limits assumed): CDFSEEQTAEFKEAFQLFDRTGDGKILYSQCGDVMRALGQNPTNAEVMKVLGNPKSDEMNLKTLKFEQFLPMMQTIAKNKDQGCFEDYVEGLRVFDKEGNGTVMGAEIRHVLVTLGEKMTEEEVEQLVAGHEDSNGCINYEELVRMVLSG

Molecule: MLCK: myosin light chain kinase purified from chicken gizzard
phosphorylation of cardiac LC20 (cardiac LC20): 0.2 mol phosphate per mol protein

inhibition of smooth muscle myosin ATPase activity [1]: inhibition was clearly released | change in affinity of caldesmon for actin(-tropomyosin), phosphorylated vs unphosphorylated (actin-tropomyosin): approximately two-fold reduction
B1: PAK-phosphorylated caldesmon: caldesmon phosphorylated by PAK (protein, UniProt P12957 1-771, looked up)
Caldesmon: MDDFERRRELRRQKREEMRLEAERLSYQRNDDDEEEAARERRRRARQERLRQKEEGDVSGEVTEKSEVNAQNSVAEEETKRSTDDEAALLERLARREERRQKRLQEALERQKEFDPTITDGSLSVPSRREVNNVEENEITGKEEKVETRQGRCEIEETETVTKSYQRNNWRQDGEEEGKKEEKDSEEEKPKEVPTEENQVDVAVEKSTDKEEVVETKTLAVNAENDTNAMLEGEQSITDAADKEKEEAEKEREKLEAEEKERLKAEEEKKAAEEKQKAEEEKKAAEERERAKAEEEKRAAEERERAKAEEERKAAEERERAKAEEERKAAEERAKAEEERKAAEERAKAEEERKAAEERAKAEKERKAAEERERAKAEEEKRAAEEKARLEAEKLKEKKKMEEKKAQEEKAQANLLRKQEEDKEAKVEAKKESLPEKLQPTSKKDQVKDNKDKEKAPKEEMKSVWDRKRGVPEQKAQNGERELTTPKLKSTENAFGRSNLKGAANAEAGSEKLKEKQQEAAVELDELKKRREERRKILEEEEQKKKQEEAERKIREEEEKKRMKEEIERRRAEAAEKRQKVPEDGVSEEKKPFKCFSPKGSSLKIEERAEFLNKSAQKSGMKPAHTTAVVSKIDSRLEQYTSAVVGNKAAKPAKPAASDLPVPAEGVRNIKSMWEKGNVFSSPGGTGTPNKETAGLKVGVSSRINEWLTKTPEGNKSPAPKPSDLRPGDVSGKRNLWEKQSVEKPAASSSKVTATGKKSETNGLRQFEKEP
modifications: phosphorylated by PAK

inhibition of smooth muscle myosin ATPase activity [1]: inhibited
B2: caldesmon: unphosphorylated smooth muscle caldesmon purified from chicken gizzard (protein, UniProt P12957 1-771, looked up)
Caldesmon: B1 Caldesmon
